Measured values: patent publication US20260207759A1, “COMPOSITION OF CD40-BINDING MOLECULE AND PHARMACEUTICAL USE THEREOF” (SUZHOU SUNCADIA BIOPHARMACEUTICALS CO., LTD., priority 2022, published 2026)
Like-named read-outs stand apart in the source and are kept apart here.

Assays:
[1] = target: his-tagged human CD40 recombinant protein (h-CD40-his, Acrobiosystems Cat. #CD0-H5228) (human) (UniProt P25942); assay: SPR (Biacore), antibody captured on anti-human Fc chip, His-tagged CD40 as analyte, 1:1 model
[2] = target: human CD40 on the cell surface (Raji cells, HEK-Blue CD40L cells, primary human B cells and DCs) (human) (UniProt P25942); assay: flow cytometry (FACS) binding to Raji cells
[3] = target: human CD40 on the cell surface (Raji cells, HEK-Blue CD40L cells, primary human B cells and DCs) (human) (UniProt P25942); assay: cell-based or functional assay
[4] = target: human CD40 on the cell surface (Raji cells, HEK-Blue CD40L cells, primary human B cells and DCs) (human) (UniProt P25942); assay: flow cytometry (FACS) binding to Raji cells; remark: listed apart in the source

Sequence of human CD40 on the cell surface (Raji cells, HEK-Blue CD40L cells, primary human B cells and DCs) (human) (P25942 21-277): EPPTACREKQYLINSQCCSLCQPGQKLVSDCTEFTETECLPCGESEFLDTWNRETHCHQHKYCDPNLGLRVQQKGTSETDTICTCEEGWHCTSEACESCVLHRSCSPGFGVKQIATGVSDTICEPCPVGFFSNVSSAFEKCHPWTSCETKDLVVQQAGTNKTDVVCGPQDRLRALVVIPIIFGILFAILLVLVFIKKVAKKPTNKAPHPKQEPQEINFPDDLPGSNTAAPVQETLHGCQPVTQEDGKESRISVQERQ
Sequence of his-tagged human CD40 recombinant protein (h-CD40-his, Acrobiosystems Cat. #CD0-H5228) (human) (P25942 21-193 limits assumed): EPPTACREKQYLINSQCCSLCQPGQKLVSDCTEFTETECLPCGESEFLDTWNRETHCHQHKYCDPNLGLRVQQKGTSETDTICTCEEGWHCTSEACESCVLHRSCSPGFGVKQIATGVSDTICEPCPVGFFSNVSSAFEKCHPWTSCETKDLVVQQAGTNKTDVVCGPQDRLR

A Kd [1] of 0.205 nM, a koff [1] of 0.000141 s⁻¹ and a kon [1] of 688000 M⁻¹ s⁻¹ were found for “CFZ533 (iscalimab), anti-CD40 antagonistic antibody, positive control” in this work. The EC50 [2] was 2.41 nM, the B cell activation assay, CD19+CD69+ %, IC50 [3] was 0.14 nM and the B cell activation assay, CD19+CD69+ %, maximum inhibition rate [3] was 95%. For the same substance, the B cell activation assay, CD19+CD69+ MFI, IC50 [3] was 0.07 nM, the B cell activation assay, CD19+CD69+ MFI, maximum inhibition rate [3] was 110% and the IC50 for the inhibition of CD40 reporter gene cell activity (Experiment 1) [3] was 0.36 nM. For the same substance, the IC50 for the inhibition of CD40 reporter gene cell activity (Experiment 2) [3] was 0.35 nM, the IC50 in DC cell activation assay system, CD80 MFI [3] was 1.19 nM and the IC50 in DC cell activation assay system, CD86 MFI [3] was 1.93 nM. The IC50 in DC cell activation assay system, IL-12/23 p40 [3] was 0.68 nM, the IC50 in DC cell activation assay system, TNFα [3] was 0.35 nM and the Reporter gene cell activity IC50 (SEAP, HEK-Blue CD40L cells stimulated with CD40L) [3] was 0.272 nM. For the same substance, the EC50 [4] was 1.01 nM.
